{"source": "the RNAGym collection of RNA variant scans (doi:10.1073/pnas.2313332121)", "parents": {"B1": {"name": "TPR t1 (parent)", "chain": "GACCAAUCUGCCCUCAGAGCUCGAGAACAUCUUCGGAUGCAGAGGAGGCAGGCUUCGGUGGCGCGAUAGCGCCAACGUCCUCAACCUCCAAUGCAUCCCACCACAUGAUGAUGCCUGAAGAGCCUUGGUUUUUUG"}}, "data": [{"variants_of": "B1", "test": "polymerase ribozyme fitness, log enrichment relative to wild type (log ratio); higher = more active; in vitro selection for triplet polymerase activity", "procedure,_shortened": "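Mutant libraries were PCR-built and transcribed for each subunit of a heterodimeric triplet polymerase ribozyme and selected for one round in triplicate at −7 °C, frozen, before gel excision of extended constructs and streptavidin-bead capture. Input and output libraries were Illumina-sequenced, keeping genotypes with ≥10 input reads and ≥1 read per output. Fitness is a logarithmic ratio of genotype to wild-type enrichment, in base 2, using inverse-variance-weighted replicate averages.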", "values": [{"variant": "GACCAAUUUGCCCUUAGAGCUCGAGAACAUCUUCGGAUGCAGAGGAGGCAGGCUUCUGUGGCGCGAUAGCGCCAACGUCCUUAACCUCCAAUGCAUCCCACCACAUGAUGAAGCCUGGAGAGCCUUGGUUUUUUG", "note": "[C8U C15U G57U C82U U112A A118G]", "polymerase ribozyme fitness (log ratio)": 0.233}, {"variant": "GACCAAUUUGCCCUAAGAGCUCGAGAACAUCUUCGGAUGCAGAGGAGGCAGGCUUCGGUGGCGCGAUAGCGCCAACGUCCUCAACCUCCAAUGCAUCCCACCACAUGAUGAUGCCUGUAGCGCCUUGGUUUUUUG", "note": "[C8U C15A A118U A121C]", "polymerase ribozyme fitness (log ratio)": 0.853}, {"variant": "GACCAAUUUGCCUUCAGAACUCGAGAACAUCUUCGGAUGUAGAGGAGGCAGGUGUCGGUGGCGCGAUAGCGCCGACGUCCUCAACCUCCAAUGCAUCCCACCACAUGAUGAUGCCUGAAGAGCCUUGGUUAUUUG", "note": "[C8U C13U G19A C40U C53U U54G A74G U131A]", "polymerase ribozyme fitness (log ratio)": -5.02}, {"variant": "GACCAAUUUGCCUUCAGAGCUGGAGAACAUCUUCGGAUGCAGAGGAGGCAGGCUUCGGAGGCGCGAUAGCGCCAACGUCCCCAACCUCCAAUGCAUCCCACCACAUGAAGAUGCCUGAAGAGCCUUGGUUUUUUG", "note": "[C8U C13U C22G U59A U81C U109A]", "polymerase ribozyme fitness (log ratio)": -5.73}, {"variant": "GACCAAUUUGCCCUCAGAGGUCGAGAACAUCUUCGGAUGCAGAGGAGGCAGGCUUCGGUGGCGCGAUAGCGCCAACGUCCUCAACCUCCAAUGCGUCCCACCACAUGAUGAUUCCUGAAGAGCCUUGAUUUUUUG", "note": "[C8U C20G A95G G113U G128A]", "polymerase ribozyme fitness (log ratio)": -2.96}, {"variant": "GACCAAUUUGCCCUCAGAGCUGGAGAACAUCUUCGGAUCCAGAGGAGGCAGGCUUCGGUGGCGCGAUAGCGCCAACGUCCUCAACCUCCAAUGCAUCCCACCACAUGAUGAUGCCUGAAGAGCCUUGGUUUUUUG", "note": "[C8U C22G G39C]", "polymerase ribozyme fitness (log ratio)": -4.04}, {"variant": "GACCAAUUUGCCCUCAGAGGUCGAGAACAUCUUCGGAUGCAGAGGAGGCAGGCUUCGGUGGCGCGAUAGCGCCAACGUCCUCAACCUCCAAUGCAUCCCACCACAUGAUGAUGCCUGAAGAGCCUUGGUUUUUUG", "note": "[C8U C20G]", "polymerase ribozyme fitness (log ratio)": -3.53}, {"variant": "GACCAAUUUGCCCUCAGAGAUCGAGAACAUCUUCGGAUGCAGAGGAGGCAGGCUUCGGUGGCGCGAUAGCGCCAACGUCCUCAACCUCCAAUGCAUCCCACCACAUGAUGAUGCCUGAAGAGCCUUGGUUUUUUG", "note": "[C8U C20A]", "polymerase ribozyme fitness (log ratio)": -1.98}, {"variant": "GACCAAUUUGCCGUCAGAGCUCGAGAACAUCUUCGGAUGCAGAGGAGGCAGGGUUCGGUGGCGCGAUAGCGGCAACGUCCUCAACCACCAAUGCAUCCCACCACAUGAUGAUGCCUGAAGAGCCUUGGUUUUCUG", "note": "[C8U C13G C53G C72G U87A U133C]", "polymerase ribozyme fitness (log ratio)": -2.29}, {"variant": "GACCAAUUUGCCCUGAGAGCUCGAGAACAUCUUCGGUUGCAGAGGAGGCAGGCUUCGGUGGCGCGAUAGCGCCAACGUCCUCAACCUCCAAUGCAUCCCACCACAUGAUGAUGCCUGAAGAGCCUUGGUUUUUUG", "note": "[C8U C15G A37U]", "polymerase ribozyme fitness (log ratio)": -1.75}, {"variant": "GACCAAUUUGCCGUCAGAGCUCGAGAACAUCUUCGGAUGCAGAGGAGGCAGGCUUCGGUGGCGCGAUAGCGCCAACGUCCUCAACCUCCAAUGCAUCCCACAACAUGAUGAUGCCUGAAGAAGCUUGGUUUUUUG", "note": "[C8U C13G C102A G122A C123G]", "polymerase ribozyme fitness (log ratio)": -0.13}, {"variant": "GACCAAUUUGCUCUCAGAGCUCGAGAACAUCUUCGGAUGCAGAGGAGGCAGGCUUCGGUGGCGCGAUAGCGCCAACGUCCUCAACCUCCAAUGCAUCCCACCACAUGAUGAUGCCUGAAGAGCCUUGGUUUUUUG", "note": "[C8U C12U]", "polymerase ribozyme fitness (log ratio)": 0.659}, {"variant": "GACCAAUUUGCCCUUAGAGCUCGAGAACAUCUUCGGAUGCAGAGGAGGCAGGAUUCGGUGGCGCGAUAGCGCCAACGUCCUCAACCUCCAAUGCAUCCCACCACAUGAUGAUGCCUGAAGAGCCUUGGUUUUUUG", "note": "[C8U C15U C53A]", "polymerase ribozyme fitness (log ratio)": -0.442}, {"variant": "GACCAAUUUGCCUUCAGAGCUCGAGAACAUCUUCGGAUACAGAGGAGGCAGGCUUCGGUGGCGCGAUAGCGCCAACGUCUUCAACCUCCAAUGCAUCCCACAACAUGAUGAUGCCUGAAGAGCCUUGGUUUUUUG", "note": "[C8U C13U G39A C80U C102A]", "polymerase ribozyme fitness (log ratio)": -2.98}, {"variant": "GACCAAUUUGCACUCAGAGCUCGAGAACAUCUUCGGAUGAAGAGGAGGCAGGCUUCGGUGUCGCGGUAGCGCCAACGUCCUCAACCUCCAAUGCAUCCCACCACAUGAUGAUGCCUGAAGAGCCUUGGUUUUUUG", "note": "[C8U C12A C40A G61U A66G]", "polymerase ribozyme fitness (log ratio)": -1.69}, {"variant": "GACCAAUUUGCCCUCAGAGCUGGAGAACAUCUUCGGAUGCAGAGGAGGCAGGCUUCGGUGGCGUGAUAGCGCCAACGUCCUCAACCUCCAAUGCAUCCCACCACAUGAUGAAGCCUGAAGAGCCAUGGUCUUUUG", "note": "[C8U C22G C64U U112A U125A U130C]", "polymerase ribozyme fitness (log ratio)": -2.33}, {"variant": "GACCAAUUUGCGCUCAGAGCUCGAGAACAUCUUCGGAUGCAUAGGAGGCAGGCUUCGGUGGCGCGAUAGCGCCUACGUCCUCAACCUACAAUGCAUCCCACCACAUGAUGAUGCCUGAAGAGCCUUGGUUUUUUG", "note": "[C8U C12G G42U A74U C88A]", "polymerase ribozyme fitness (log ratio)": -1.72}, {"variant": "GACCAAUUUGCCGUCAGAGCUCGAGAACAUCUUCGGAUGCAGAGGAGGCAGGCUUCGGUGGCGCGAUAACGACAACGUCCUCAACCUCCAAUGCAUCCCACCACAUGAUGAUGCCUGAAGAGCCUUGGUUUUUUG", "note": "[C8U C13G G69A C72A]", "polymerase ribozyme fitness (log ratio)": -4.71}, {"variant": "GACCAAUUUGCUCUCAGAGCUCGAGAACAUCUUCGGAUGCAGAGGAGGCAGGCUUCCGUGGCGCGAUAGCGCCAACGUCCUCAACCUCCUAUGCAUCCCACCACAUGAUGAUGCCUGAAGAGCCUUGGUUUUUUG", "note": "[C8U C12U G57C A90U]", "polymerase ribozyme fitness (log ratio)": -0.755}, {"variant": "GACCAAUUUGGCUUCAGAGAUCGAGAACAUCUUCGGAUGCAGAGGAGGCAGGCUUCGGUGGCGCGAUACCGCCAACGUCCUACACCUCCAAUGCAUCUCACCACAUGAUGAGGCCUGAAGAGCCUUGGUUUUUUG", "note": "[C8U C11G C13U C20A G69C C82A A83C C98U U112G]", "polymerase ribozyme fitness (log ratio)": -4.19}, {"variant": "GACCAAUUUGCACUCAGAGCUCGAGAACAUCUUCGGAUGCAGAGGAGGCAGGCUUCGGUGGCGCGAUAGCGUCAACGUCCUCAACCUCCAAUGCAUCCCACCACAUGAUGAUGCCUCAAGAGCCUUGGUUUUUUG", "note": "[C8U C12A C72U G117C]", "polymerase ribozyme fitness (log ratio)": -1.86}]}]}
